The test system of assay [1] is isolated rat liver mitochondria. Briefly: Hypoxic inhibition of respiration of isolated mitochondria. Format: cell-based. How it is done:
Mitochondria were isolated from the livers of male Sprague Dawley rats and incubated with wild-type or mutant Ngb proteins in a sealed, stirred chamber at 37° C. State 3 respiration was stimulated with succinate (15 mM) and ADP (1 mM) and oxygen consumption was measured with a Clark-type oxygen electrode. To measure inhibition of respiration in hypoxic conditions, respiring mitochondria were allowed to consume oxygen until the chamber became anoxic and then the chamber lid was removed to allow the diffusion of air back into the chamber. The rate of mitochondrial respiration was greater than the rate of oxygen entering the chamber such that the oxygen electrode trace remained at zero while the mitochondria were respiring. Nitrite was added to the chamber prior to the removal of the lid and deviation of the oxygen trace from a zero reading signified a decrease in respiration rate. All experiments were performed under conditions where substrates were not limiting. The extent of respiratory inhibition was quantified by measuring the time from equilibration of the mitochondria with air to the time when the oxygen trace deviated from zero. This time to inhibition was expressed as a percentage of maximal inhibition, where 100% inhibition was defined as the time to inhibition in the presence of cyanide and the time to the exhaustion of substrates was used as a measure of 0% inhibition. Similar experiments were performed with SHSY5Y cells suspended in the respirometer and treated with the uncoupler FCCP (5 μM) to measure hypoxic inhibition of cellular respiration.

The conditions of assay [2]: cited from earlier work.
Assay [3] can be described thus: Anaerobic reaction of deoxygenated globins with excess nitrite (nitrite reductase kinetics, absorption / stopped-flow spectroscopy). It is filed as biochemical. The conditions noted are these: for rate of nitrite reduction (in words): cysteine to alanine mutants; for relative percentage of the total absorbance change (Soret peak 425 nm) in the first 60 minutes: 1 mM nitrite, 0.1 M HEPES pH 7.4, H64L-Ngb normalized to 100%. The procedure: Oxygen contamination was prevented by application of positive argon pressure without a channel for gas escape. Concentrations of single species during reactions were determined by least squares deconvolution of the visible absorption spectrum into standard reference spectra using Microsoft Excel analysis. OxyNgb was included to confirm successful deoxygenation before the reaction. […] Fast kinetic studies were performed using an Applied Photophysics DX-17 stopped-flow instrument equipped with rapid-scanning diode array detection. […] To determine bimolecular rate constants all reactions were analyzed with Pro-K software (Applied Photophysics) using singular value decomposition followed by fitting of the reduced data matrix to a pseudo-first order kinetic model.

A short description of assay [4]: Determination of nitrite binding constants to met-Ngb (difference spectra titration). To be noted: met-Ngb 10 μM, 200 mM phosphate buffer, pH 7.4, 25° C.; read-out: Kd (NO2^−). The procedure:
To determine the binding constant of nitrite to metNgb, 10 μM wild type and mutant Ngb in 200 mM phosphate buffer, pH 7.4, were incubated in a cuvette at 25° C. with increasing concentrations of nitrite and the UV—visible spectra were recorded after each increase in nitrite concentration. The constant KD for each protein was determined by interpolation of the absorbance data following procedures in Nicolis et al. (Biochem J 407:89-99, 2007).

Assay [5] is described as follows: Reaction of met-Ngb with nitrite to produce nitrosyl-Ngb (nitrite ferric heme reduction). Format: biochemical. To be noted: met-Ngb with nitrite in the presence of dithionite.
Assay [6] can be described thus: EPR spectroscopy of iron-nitrosyl-heme formation from nitrite. Format: biochemical. To be noted: 1 mM nitrite, 40±5 μM protein. How it is done: Iron nitrosyl species were measured by EPR spectroscopy using a Bruker EMX 10/12 spectrometer operating at 9.4 GHz, 5-G modulation, 10.1-milliwatt power, 327.68-ms time constant and 163.84-s scan over 600 G at 110 K as described previously (Basu et al., J Biol Chem 283:32590-32597, 2008; Azarov et al., J. Biol. Chem. 280:[…], 2005). The concentrations of Mb and Ngb species were determined by performing the double integral calculation and comparing to standard samples.

The nature of assay [7]: Direct measurement of NO release in gas phase (chemiluminescence). The conditions noted are these: 20 μM Ngb, 1 mM nitrite, anaerobic. It is filed as biochemical. An excerpt: Once a stable baseline was established Ngb was reacted with a known amount of nitrite as previously described (Huang et al., J Clin Invest 115:2099-2107, 2005).
The conditions of assay [8]: nitrite 7-230 μM; cited from earlier work.

Residue numbers refer to the chain shown, from its start. Names may count otherwise. Read-outs that look alike come from different tables or passages of the source.

For the molecule `O=NO` [nitrite, reference compound], in assay [1] (nitrite 20 μM or protein 5 μM alone), the “inhibition of respiration, incubated alone (in words)” value was “No significant inhibition”.

B1: neuroglobin: heme containing, monomeric, 16.9 kDa protein; literature values of the background section (protein, listed as Homo sapiens)
chain: MERPEPELIRQSWRAVSRSPLEHGTVLFARLFALEPDLLPLFQYNCRQFSSPEDCLSSPEFLDHIRKVMLVIDAAVTNVEDLSSLEEYLASLGRKHRAVGVKLSSFSTVGESLLYMLEKCLGPAFTPATRAAWSQLYGAVVQAMSRGWDGE
Turning to B1, the “oxygen affinity P50” value in assay [2] (20° C.) was 1-2 mmHg; in assay [2] (after disulfide bond formation), approximately 1 mmHg; in assay [2] (before disulfide bond formation), “about 9 mmHg”.

B2: C46A: recombinant human neuroglobin mutant with cysteine 46 replaced by alanine (protein, UniProt Q9NPG2 1-151, looked up, variant C46A)
Neuroglobin: B1 chain with C46A
For the molecule B2, the “rate of nitrite reduction (in words)” value in assay [3] is given as “slowed down the rate of nitrite reduction to similar rates observed with Ngb having fully reduced cysteines”.

B3: WT SH: wild-type human neuroglobin without disulfide bond, cysteines reduced by incubation with 10 mM DTT (protein, UniProt Q9NPG2 1-151, looked up)
Neuroglobin: B1 chain
modifications: cysteines reduced with DTT
notes: wild-type human neuroglobin without disulfide bond, cysteines reduced by incubation with 10 mM DTT
Take B3: in assay [3], the “relative percentage of the total absorbance change (Soret peak 425 nm) in the first 60 minutes” value came out at 20%. Besides, the “rate of nitrite reduction after reduction of the disulfide bond” value in assay [3] (cysteines reduced with 10 mM DTT, 25° C., pH 7.4) turned out to be 0.062 ± 0.005 M⁻¹ s⁻¹. In assay [3] (relative to oxidized wild type, 25° C., pH 7.4), the “slowing of nitrite reduction rate by reduction of the disulfide bond” value is “about 2 fold”. Besides, the Kd in assay [4] came out at 12.6 ± 3.3 mM. The “BRC of nitrite ferric heme reduction” value in assay [5] is given as 0.0002 ± 0.0005. Further, in assay [6], the “rate of iron-nitrosyl-Ngb / NO formation by EPR (in words)” value is given as “slowed the rate of iron-nitrosyl-Ngb formation”.

B4: C55A: recombinant human neuroglobin mutant with cysteine 55 replaced by alanine, six-coordinate (protein, UniProt Q9NPG2 1-151, looked up, variant C55A)
Neuroglobin: B1 chain with C55A
In the case of B4, in assay [3], the “relative percentage of the total absorbance change (Soret peak 425 nm) in the first 60 minutes” value turned out to be 18% and the “rate of nitrite reduction (in words)” value is on record as “slowed down the rate of nitrite reduction to similar rates observed with Ngb having fully reduced cysteines”. Further, the Kd in assay [4] was 30.1 ± 4.5 mM. The “BRC of nitrite ferric heme reduction” value in assay [5] is on record as 0.0002 ± 0.0005. Further, the “rate of NO detected in gas phase (in words)” value in assay [7] is reported as “significantly decreased”. In addition, the “inhibition of respiration (cyanide = 100%)” value in assay [1] (5 μM protein with 20 μM nitrite, hypoxia) was found to be 62±4%.

B5: mouse neuroglobin: deoxy mouse neuroglobin of a cited study (Petersen et al., 2008) (protein, UniProt Q9ER97 1-151, looked up)
Neuroglobin: B1 chain with P6S, A15V, D37S, C46G, A90T, K102R, A124D, A131T, Q135R
With B5, the “apparent second-order rate constant” value in assay [8] is 5.1 ± 0.4 M⁻¹ s⁻¹.

B6: Myoglobin: horse heart myoglobin, purified by Sephadex G-25 gel filtration (protein, UniProt P68082 2-154, looked up)
Myoglobin: GLSDGEWQQVLNVWGKVEADIAGHGQEVLIRLFTGHPETLEKFDKFKHLKTEAEMKASEDLKKHGTVVLTALGGILKKKGHHEAELKPLAQSHATKHKIPIKYLEFISDAIIHVLHSKHPGDFGADAQGAMTKALELFRNDIAAKYKELGFQG
For B6, the “BRC of myoglobin reaction with nitrite” value in assay [3] (100 mM phosphate buffer with EDTA, pH 7.4, 25° C.) stood at 2.9 ± 0.2 M⁻¹ s⁻¹.

A word on the Kd: it is a measure of binding affinity in units of concentration.

Values taken from US9114109B2, “Five-coordinate neuroglobin and use thereof as a blood substitute” (University of Pittsburgh—Of the Commonwealth System of …, priority 2009, dated 2015).
